Assay results from IntAct's records for PubMed 29039417.

B1: BBSome complex member BBS4 (Homo sapiens), Q96RK4 (parent)
chain: MAEERVATRTQFPVSTESQKPRQKKAPEFPILEKQNWLIHLHYIRKDYEACKAVIKEQLQETQGLCEYAIYVQALIFRLEGNIQESLELFQTCAVLSPQSADNLKQVARSLFLLGKHKAAIEVYNEAAKLNQKDWEISHNLGVCYIYLKQFNKAQDQLHNALNLNRHDLTYIMLGKIHLLEGDLDKAIEVYKKAVEFSPENTELLTTLGLLYLQLGIYQKAFEHLGNALTYDPTNYKAILAAGSMMQTHGDFDVALTKYRVVACAVPESPPLWNNIGMCFFGKKKYVAAISCLKRANYLAPFDWKILYNLGLVHLTMQQYASAFHFLSAAINFQPKMGELYMLLAVALTNLEDIENAKRAYAEAVHLDKCNPLVNLNYAVLLYNQGEKKNALAQYQEMEKKVSLLKDNSSLEFDSEMVEMAQKLGAALQVGEALVWTKPVKDPKSKHQTTSTSKPASFQQPLGSNQALGQAMSSAAAYRTLPSGAGGTSQFTKPPSLPLEPEPAVESSPTETSEQIREK
partner: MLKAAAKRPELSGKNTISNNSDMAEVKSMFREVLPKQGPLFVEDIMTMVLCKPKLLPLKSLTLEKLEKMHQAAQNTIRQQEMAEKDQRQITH

Variants of: B1
Settings: with bbip1_human BBIP1, A8MTZ0

Effect of a mutation on the interaction, with no effect:
MAEERVATRTQFPVSTESQKPRQKKAPEFPILEKQNWLIHLHYIRKDYEACKAVIKEQLQETQGLCEYAIYVQALIFRLEGNIQESLELFQTCAVLSPQSADNLKQVARSLFLLGKHKAAIEVYNEAAKLNQKDWEISHNLGVCYIYLKQFNKAQDQLHNALNLNRHDLTYIMLGKIHLLEGDLDKAIEVYKKAVEFSPENTELLTTLGLLYLQLGIYQKAFEHLGNALTYDPTNYKAILAAGSMMQTHGDFDVALTKYRVVACAVPESPPLWNNIGMCFFGKKKYVAAISCLKRANYLAPFDWKILYNLGLVHLTMQQYASAFHFLSAAINAQPKMGELYMLLAVALTNLEDIENAKRAYAEAVHLDKCNPLVNLNYAVLLYNQGEKKNALAQYQEMEKKVSLLKDNSSLEFDSEMVEMAQKLGAALQVGEALVWTKPVKDPKSKHQTTSTSKPASFQQPLGSNQALGQAMSSAAAYRTLPSGAGGTSQFTKPPSLPLEPEPAVESSPTETSEQIREK [F333A]
MAEERVATRTQFPVSTESQKPRQKKAPEFPILEKQNWLIHLHYIRKDYEACKAVIKEQLQETQGLCEYAIYVQALIFRLEGNIQESLELFQTCAVLSPQSADNLKQVARSLFLLGKHKAAIEVYNEAAKLNQKDWEISHNLGVCYIYLKQFNKAQDQLHNALNLNRHDLTYIMLGKIHLLEGDLDKAIEVYKKAVEFSPENTELLTTLGLLYLQLGIYQKAFEHLGNALTYDPTNYKAILAAGSMMQTHGDFDVALTKYRVVACAVPESPPLWNNIGMCFFGKKKYVAAISCLKRANYLAPFDWKILYNLGLVHKTMQQYASAFHFLSAAINFQPKMGELYMLLAVALTNLEDIENAKRAYAEAVHLDKCNPLVNLNYAVLLYNQGEKKNALAQYQEMEKKVSLLKDNSSLEFDSEMVEMAQKLGAALQVGEALVWTKPVKDPKSKHQTTSTSKPASFQQPLGSNQALGQAMSSAAAYRTLPSGAGGTSQFTKPPSLPLEPEPAVESSPTETSEQIREK [L315K]
MAEERVATRTQFPVSTESQKPRQKKAPEFPILEKQNWLIHLHYIRKDYEACKAVIKEQLQETQGLCEYAIYVQALIFRLEGNIQESLELFQTCAVLSPQSADNLKQVARSLFLLGKHKAAIEVYNEAAKLNQKDWEISHNLGVCYIYLKQFNKAQDQLHNALNLNRHDLTYIMLGKIHLLEGDLDKAIEVYKKAVEFSPENTELLTTLGLLYLQLGIYQKAFEHLGNALTYDPTNYKAILAAGSMMQTHGDFDVALTKYRVVACAVPESPPLWNNIGMCFFGKKKYVAAISCLKRANYLAPFDWKILYNLGLVHLTMQQYASAFHFLSAAINFQPKMGELYMLLAVALTNLEDIENAKRAYAEAVHLDKCNPLVNLNYAVLLYNQGEKKNALAEYQEMEKKVSLLKDNSSLEFDSEMVEMAQKLGAALQVGEALVWTKPVKDPKSKHQTTSTSKPASFQQPLGSNQALGQAMSSAAAYRTLPSGAGGTSQFTKPPSLPLEPEPAVESSPTETSEQIREK [Q394E]
MAEERVATRTQFPVSTESQKPRQKKAPEFPILEKQNWLIHLHYIRKDYEACKAVIKEQLQETQGLCEYAIYVQALIFRLEGNIQESLELFQTCAVLSPQSADNLKQVARSLFLLGKHKAAIEVYNEAAKLNQKDWEISHNLGVCYIYLKQFNKAQDQLHNALNLNRHDLTYIMLGKIHLLEGDLDKAIEVYKKAVEFSPENTELLTTLGLLYLQLGIYQKAFEHLGNALTYDPTNYKAILAAGSMMQTHGDFDVALTKYRVVACAVPESPPLWNNIGMCFFGKKKYVAAISCLKRANYLAPFDWKILYNLGLVHLTMQQYASAFHFLSAAINFQPKMGELYMLLAVALTNLEDIENEKRAYAEAVHLDKCNPLVNLNYAVLLYNQGEKKNALAQYQEMEKKVSLLKDNSSLEFDSEMVEMAQKLGAALQVGEALVWTKPVKDPKSKHQTTSTSKPASFQQPLGSNQALGQAMSSAAAYRTLPSGAGGTSQFTKPPSLPLEPEPAVESSPTETSEQIREK [A357E]
MAEERVATRTQFPVSTESQKPRQKKAPEFPILEKQNWLIHLHYIRKDYEACKAVIKEQLQETQGLCEYAIYVQALIFRLEGNIQESLELFQTCAVLSPQSADNLKQVARSLFLLGKHKAAIEVYNEAAKLNQKDWEISHNLGVCYIYLKQFNKAQDQLHNALNLNRHDLTYIMLGKIHLLEGDLDKAIEVYKKAVEFSPENTELLTTLGLLYLQLGIYQKAFEHLGNALTYDPTNYKAILAAGSMMQTHGDFDVALTKYRVVACAVPESPPLWNNIGMCFFGKKKYVAAISCLKRANYLAPFDWKILYNLGLVHLTMQQYASAFHFLSAAINFQPKMGELYMLLAVALTNLEDIENAKRAYAEAVHLDKCNPLVNLNYAVLLYNQGEKKNALAQYQEMEKKVSLLKDNSSLEFDSEMVEMAQKLGAALQVGEALVWTKPVKEPKSKHQTTSTSKPASFQQPLGSNQALGQAMSSAAAYRTLPSGAGGTSQFTKPPSLPLEPEPAVESSPTETSEQIREK [D442E]
MAEERVATRTQFPVSTESQKPRQKKAPEFPILEKQNWLIHLHYIRKDYEACKAVIKEQLQETQGLCEYAIYVQALIFRLEGNIQESLELFQTCAVLSPQSADNLKQVARSLFLLGKHKAAIEVYNEAAKLNQKDWEISHNLGVCYIYLKQFNKAQDQLHNALNLNRHDLTYIMLGKIHLLEGDLDKAIEVYKKAVEFSPENTELLTTLGLLYLQLGIYQKAFEHLGNALTYDPTNYKAILAAGSMMQTHGDFDVALTKYRVVACAVPESPPLWNNIGMCFFGKKKYVAAISCLKRANYLAPFDWKILYNLGLEHLTMQQYASAFHFLSAAINFQPKMGELYMLLAVALTNLEDIENAKRAYAEAVHLDKCNPLVNLNYAVLLYNQGEKKNALAQYQEMEKKVSLLKDNSSLEFDSEMVEMAQKLGAALQVGEALVWTKPVKDPKSKHQTTSTSKPASFQQPLGSNQALGQAMSSAAAYRTLPSGAGGTSQFTKPPSLPLEPEPAVESSPTETSEQIREK [V313E]
MAEERVATRTQFPVSTESQKPRQKKAPEFPILEKQNWLIHLHYIRKDYEACKAVIKEQLQETQGLCEYAIYVQALIFRLEGNIQESLELFQTCAVLSPQSADNLKQVARSLFLLGKHKAAIEVYNEAAKLNQKDWEISHNLGVCYIYLKQFNKAQDQLHNALNLNRHDLTYIMLGKIHLLEGDLDKAIEVYKKAVEFSPENTELLTTLGLLYLQLGIYQKAFEHLGNALTYDPTNYKAILAAGSMMQTHGDFDVALTKYRVVACAVPESPPLWNNIGMCFFGKKKYVAAISCLKRANYLAPFDWKILYNLGLVHLTMQQYASAFHFLSAAINFQPKMGELYMLLAVALTNLEDIENAKRAYAEAVHLDKCNPLVNLNYAVLLYNQGEKKNALAQYQEMEKKVSLLKDNSSLEFDSEMVEMAQKLGAALQVGEALVWTKPVKDPKSKHQTTSTSKPASFQQPLGANQALGQAMSSAAAYRTLPSGAGGTSQFTKPPSLPLEPEPAVESSPTETSEQIREK [S464A]
MAEERVATRTQFPVSTESQKPRQKKAPEFPILEKQNWLIHLHYIRKDYEACKAVIKEQLQETQGLCEYAIYVQALIFRLEGNIQESLELFQTCAVLSPQSADNLKQVARSLFLLGKHKAAIEVYNEAAKLNQKDWEISHNLGVCYIYLKQFNKAQDQLHNALNLNRHDLTYIMLGKIHLLEGDLDKAIEVYKKAVEFSPENTELLTTLGLLYLQLGIYQKAFEHLGNALTYDPTNYKAILAAGSMMQTHGDFDVALTKYRVVACAVPESPPLWNNIGMCFFGKKKYVAAISCLKRANYLAPFDWKILYNLGLVHLTMQQYASAFHFLSAAINFQPKMGELYMLLAVALTNLEDIENAKRAYAEAVHLDKCNPLVNLNYAVLLYNQGEKKNALAQYQEMEKKVSLLKDNSSLEFDSEMVEMEQKLGAALQVGEALVWTKPVKDPKSKHQTTSTSKPASFQQPLGSNQALGQAMSSAAAYRTLPSGAGGTSQFTKPPSLPLEPEPAVESSPTETSEQIREK [A421E]
MAEERVATRTQFPVSTESQKPRQKKAPEFPILEKQNWLIHLHYIRKDYEACKAVIKEQLQETQGLCEYAIYVQALIFRLEGNIQESLELFQTCAVLSPQSADNLKQVARSLFLLGKHKAAIEVYNEAAKLNQKDWEISHNLGVCYIYLKQFNKAQDQLHNALNLNRHDLTYIMLGKIHLLEGDLDKAIEVYKKAVEFSPENTELLTTLGLLYLQLGIYQKAFEHLGNALTYDPTNYKAILAAGSMMQTHGDFDVALTKYRVVACAVPESPPLWNNIGMCFFGKKKYVAAISCLKRANYLAPFDWKILYNLGLVHLTMQQYASAFHFLSAAINFQPKMGELYELLAVALTNLEDIENAKRAYAEAVHLDKCNPLVNLNYAVLLYNQGEKKNALAQYQEMEKKVSLLKDNSSLEFDSEMVEMAQKLGAALQVGEALVWTKPVKDPKSKHQTTSTSKPASFQQPLGSNQALGQAMSSAAAYRTLPSGAGGTSQFTKPPSLPLEPEPAVESSPTETSEQIREK [M342E]
MAEERVATRTQFPVSTESQKPRQKKAPEFPILEKQNWLIHLHYIRKDYEACKAVIKEQLQETQGLCEYAIYVQALIFRLEGNIQESLELFQTCAVLSPQSADNLKQVARSLFLLGKHKAAIEVYNEAAKLNQKDWEISHNLGVCYIYLKQFNKAQDQLHNALNLNRHDLTYIMLGKIHLLEGDLDKAIEVYKKAVEFSPENTELLTTLGLLYLQLGIYQKAFEHLGNALTYDPTNYKAILAAGSMMQTHGDFDVALTKYRVVACAVPESPPLWNNIGMCFFGKKKYVAAISCLKRANYLAPFDWKILYNLGLVHLTMQQYASAFHFLSAAINFQPKMGELYMLLAVALTNLEDIENAKRAYAEAVHLDKCNPLVNLNYAVLLYNQGEKKNALAQYQEMEKKVSLLKDNSSLEFDSEMVEMAQKLGAALQVGEALAWTKPVKDPKSKHQTTSTSKPASFQQPLGSNQALGQAMSSAAAYRTLPSGAGGTSQFTKPPSLPLEPEPAVESSPTETSEQIREK [V435A]
MAEERVATRTQFPVSTESQKPRQKKAPEFPILEKQNWLIHLHYIRKDYEACKAVIKEQLQETQGLCEYAIYVQALIFRLEGNIQESLELFQTCAVLSPQSADNLKQVARSLFLLGKHKAAIEVYNEAAKLNQKDWEISHNLGVCYIYLKQFNKAQDQLHNALNLNRHDLTYIMLGKIHLLEGDLDKAIEVYKKAVEFSPENTELLTTLGLLYLQLGIYQKAFEHLGNALTYDPTNYKAILAAGSMMQTHGDFDVALTKYRVVACAVPESPPLWNNIGMCFFGKKKYVAAISCLKRANYLAPFDWKILYNLGLVHLTMQQYASAFHFLSAAINFQPKMGELYMLLAVALTNLEDIENAARAYAEAVHLDKCNPLVNLNYAVLLYNQGEKKNALAQYQEMEKKVSLLKDNSSLEFDSEMVEMAQKLGAALQVGEALVWTKPVKDPKSKHQTTSTSKPASFQQPLGSNQALGQAMSSAAAYRTLPSGAGGTSQFTKPPSLPLEPEPAVESSPTETSEQIREK [K358A]
MAEERVATRTQFPVSTESQKPRQKKAPEFPILEKQNWLIHLHYIRKDYEACKAVIKEQLQETQGLCEYAIYVQALIFRLEGNIQESLELFQTCAVLSPQSADNLKQVARSLFLLGKHKAAIEVYNEAAKLNQKDWEISHNLGVCYIYLKQFNKAQDQLHNALNLNRHDLTYIMLGKIHLLEGDLDKAIEVYKKAVEFSPENTELLTTLGLLYLQLGIYQKAFEHLGNALTYDPTNYKAILAAGSMMQTHGDFDVALTKYRVVACAVPESPPLWNNIGMCFFGKKKYVAAISCLKRANYLAPFDWKILYNLGLVHLTMQQYASAFHFLSAAINFQPKMGELYMLLAVALTNLEDIENAKRAYAEAVHLDKCNPLVNLNYAVLLYNQGEKKNALAQYQEMEKKVSLLKDNSSLEFDSEMVEMAQKLGAALQVGEALVWTKPVKDPKSKHQTTSTSKPASFQQPLGSNQALGQAMSSAAAYRTLPSGAGGTSQFTKPPSLPLEPEPAVESSPTATSEQIREK [E511A]
